What is called Kd is the equilibrium constant for the complex coming apart. Low values mean higher affinity, high ones lower affinity. For orientation: EC50 means the concentration needed to bring the measured effect to its halfway point. A higher EC50 goes with a less potent agent.

One test has as its system peritoneal macrophages. As to the kind of experiment: mCCRL2 expression on peritoneal macrophages cultured 24 h with stimuli. Conditions: 24 h culture with stimulus.
For test [1], the target named is T1, mCCRL2 (Mus musculus, UniProt O35457).
T1 construct: The coding regions of mCCRL2, huCCRL2, mCRTH2, and huCCR10 were amplified from genomic DNA; expressed in transfected cells
T1 sequence (O35457 1-360): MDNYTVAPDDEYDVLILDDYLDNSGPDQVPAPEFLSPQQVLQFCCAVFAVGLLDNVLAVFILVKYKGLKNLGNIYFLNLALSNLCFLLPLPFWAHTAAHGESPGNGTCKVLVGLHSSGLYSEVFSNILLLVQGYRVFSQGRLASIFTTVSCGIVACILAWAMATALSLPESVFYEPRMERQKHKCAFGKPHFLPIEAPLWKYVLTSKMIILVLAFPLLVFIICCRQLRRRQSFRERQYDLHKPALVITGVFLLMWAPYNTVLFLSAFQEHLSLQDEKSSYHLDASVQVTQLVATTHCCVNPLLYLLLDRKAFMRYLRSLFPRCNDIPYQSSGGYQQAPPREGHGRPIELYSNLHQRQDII
As to the kind of experiment: in vitro transwell chemotaxis, mCCRL2/L1.2 transfectants. It counts as cell-based. The following applies: range of doses; CXCL12 and CCL19 act via endogenous CXCR4 and CCR7. As to the method: (§1) For migration experiments using cell lines, 2.5×10^5 cells/100 μl chemotaxis media (RPMI+10% fetal calf serum) were added to the top wells of 5-um pore transwell inserts (Costar, Corning, N.Y., USA), and test samples in 600 μl media were added to the bottom wells. After incubating the transwell plates for 1.5 hours at 37° C., the bottom wells were harvested and flow cytometry was used to assess migration. For primary cell chemotaxis, 1×10^6 cells/100 μl were added to the top well, and, following a 2 hour incubation at 37° C., polystyrene beads (15.0 μm diameter, Polysciences, Warrington, Pa., USA) were added to each well to facilitate normalization of the cell count. The cells were then stained for c-kit, F4/80, and/or CD11b expression and analyzed by flow cytometry. A ratio was generated and percent input migration was calculated.

The next test has as its target T2, huCCRL2 (Homo sapiens, UniProt O00421).
T2 construct: The coding regions of mCCRL2, huCCRL2, mCRTH2, and huCCR10 were amplified from genomic DNA; expressed in transfected cells
T2 sequence (O00421 1-344): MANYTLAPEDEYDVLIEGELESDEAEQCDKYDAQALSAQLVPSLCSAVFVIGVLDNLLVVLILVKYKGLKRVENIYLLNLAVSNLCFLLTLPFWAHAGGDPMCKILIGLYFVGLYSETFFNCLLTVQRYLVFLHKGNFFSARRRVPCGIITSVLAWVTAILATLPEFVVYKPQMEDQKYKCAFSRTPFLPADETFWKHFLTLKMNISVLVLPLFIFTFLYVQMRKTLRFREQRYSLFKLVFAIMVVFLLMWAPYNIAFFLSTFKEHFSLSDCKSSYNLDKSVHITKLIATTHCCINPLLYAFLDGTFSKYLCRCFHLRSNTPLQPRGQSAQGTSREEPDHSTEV
As to the kind of experiment: in vitro transwell chemotaxis, huCCRL2-HA/L1.2 transfectants. It counts as cell-based. Conditions: range of doses; CXCL12 and CCL19 act via endogenous CXCR4 and CCR7. As to the method: as §1

The test system of test [2] is mouse peritoneal mast cells. As to the kind of experiment: in vitro transwell chemotaxis, peritoneal mast cells. It counts as cell-based. The following applies: SSChigh CD11b- c-kit+ cells. As to the method: as §1
The test system of another test is bEND3 cells. As to the kind of experiment: CCRL2 expression in TNFα-treated bEND3 endothelioma cells. It counts as cell-based, mouse. The following applies: 24-hour treatment, 20 ng/ml. The text has this:
FIG. 22. […] Panel A. Robust upregulation of CCRL2 RNA by microarray analysis (Affymetrix®). Panel B. TNFα-treated bEND3 cells acquire CCRL2 surface protein (but not CMKLR1 expression) as determined by mAb staining and flow cytometry. Panel C. […] CCRL2/L1.2 and empty vector pcDNA3/L1.2 transfectants are shown as controls. The mean+/−SD of triplicate wells is shown for an individual experiment. A representative data set of 2 performed with similar results is shown for parts B and C, and n=1 for part A.
2005. J Exp Med 201: 509-515). […] We observed the same TNFα-mediated induction of protein expression by mAb staining […].

Test [3] deals with mouse peritoneal mast cells. As to the kind of experiment: intracellular calcium mobilization, freshly isolated peritoneal mast cells. It counts as cell-based. Conditions: 1000 nM chemerin, 100 nM ATP. As to the method:
(§2) Chemoattractant-stimulated Ca^2+-mobilization was performed following Alliance for Cell Signaling protocol ID PP00000210. Cells (3×10^6/mL) were loaded with 4 μM Fluo4-AM and 0.16% Pluronic acid F-127 (Molecular Probes) in modified Iscove's medium (Iscove's medium with 1% heat inactivated bovine calf serum and 2 mM L-glutamine, Invitrogen) for 30 minutes at 37° C. The samples were mixed every 10 minutes during loading, washed once, resuspended at up to 2×10^6/mL in the same buffer, and allowed to rest in the dark for 30 minutes at room temperature. Chemoattractant-stimulated change in Ca^2+-sensitive fluorescence of Fluo-4 was measured over real-time with a FACsScan flow cytometer and CellQuest software (BD Biosciences) at room temperature under constant stirring (500 rpm). Fluorescent data were acquired continuously up to 1024 seconds at 1-second intervals. The samples were analyzed for 45 seconds to establish basal state, removed from the nozzle to add the stimuli, and then returned to the nozzle. Mean channel fluorescence over time was analyzed with FlowJo (TreeStar, Ashland, Oreg., USA) software. […] 500 μl of these chemerin-loaded cells were added to mCMKLR1/L1.2 cells loaded with Fluo4-AM, and calcium mobilization was evaluated.
Background: Calcium assays in cells follow changes in intracellular calcium, usually with a dye or a luminescent sensor.

For test [4], the target named is T1, mCCRL2. As to the kind of experiment: intracellular calcium mobilization, mCCRL2/L1.2 transfectants. The format is cell-based. The following applies: Fluo-4; CXCL12 acts via endogenous CXCR4. The protocol:
as §2

For test [5], the target named is T3, mouse CCRL2 (chemokine (CC motif) receptor-like 2), untagged (mouse, UniProt O35457 1-360).
T3 construct: whole, on cells; also called mCCRL2; mCCRL2/L1.2
T3 sequence (looked up): T1 sequence (O35457 1-360)
As to the kind of experiment: flow cytometry on peritoneal mast cells (F4/80-, c-kit+ gate) of WT and CCRL2 KO mice, 10 nM His8-tagged isoform, anti-His6 PE [panel E]. A general note: A flow cytometer gives signals particle by particle.

For test [6], the target named is mouse CCRL2 (chemokine (CC motif) receptor-like 2), untagged (mouse) (UniProt O35457). As to the kind of experiment: saturation binding of 125I-chemerin 21-148 to mCCRL2/L1.2 cells, one-site fit; saturation binding, single site.
Test [7] has as its target T3, mouse CCRL2 (chemokine (CC motif) …). As to the kind of experiment: flow cytometry on WT peritoneal mast cells; competitor displaced: 10 nM His8-tagged serum form chemerin, anti-His6 PE [panel E].
The target of test [8] is T4, human CCRL2 with an engineered N-terminal hemagglutinin (HA) tag (human, UniProt O00421 1-344).
T4 construct: whole, on cells; also called huCCRL2-HA; not shown: engineered N-terminal HA tag
T4 sequence (looked up): T2 sequence (O00421 1-344)
As to the kind of experiment: flow cytometry; untagged chemerin competes with 10 nM His8-tagged serum form human chemerin, detected with anti-His6 PE.

Test [9] has as its target T5, mouse CCRL2 with an engineered N-terminal hemagglutinin (HA) tag (mouse, UniProt O35457 1-360).
T5 construct: whole, on cells; also called mCCRL2-HA; mCCRL2-HA/L1.2; not shown: engineered N-terminal HA tag
T5 sequence (looked up): T1 sequence (O35457 1-360)
The test is described as above.

Consider poly:IC, for which the “mCCRL2 protein expression on peritoneal macrophages” value with peritoneal macrophages is “upregulated”.
The same measure, in the same setting: with IFNγ: cytokine purchased from Roche the entry was “upregulated”.
With CXCL13: known chemoattractant, the transwell migration entry with mCCRL2 [1] is on record as “none stimulated”.
Turning to “CCL19: chemokine, positive control via CCR7”, the transwell migration result in the test with huCCRL2 and in the test with mCCRL2 [1] was “migrated” throughout.
Consider “CCL5: chemokine purchased from R&D Systems”, for which the transwell migration result with mCCRL2 [1] is given as “did not induce migration”.
Still for that read-out and setting: with CCL28: known chemoattractant the entry was “none stimulated”; with CCL11: known chemoattractant, “none stimulated”.
On to “SCF: stem cell factor, positive control for mast cell chemotaxis [reference compound]”, for which, in [2], the transwell migration result is “migrated”.
On to CXCL9: known chemoattractant, for which, in the test with mCCRL2 [1], the transwell migration result is given as “none stimulated”.
With TNFα, the “mCCRL2 protein expression on peritoneal macrophages” value in the test on peritoneal macrophages was “upregulated”. Further, in the test with bEND3 cells, the “CCRL2 mRNA” value is given as “highly upregulated” and the “CCRL2 protein expression by mAb staining” value was “induction”.
Regarding `Nc1ncnc2c1ncn2[C@@H]1O[C@H](COP(=O)(O)OP(=O)(O)OP(=O)(O)O)[C@@H](O)[C@H]1O` [ATP, reference compound], the intracellular calcium mobilization entry in test [3] is given as “responded”.
For “CXCL12: chemokine, positive control via CXCR4”, the transwell migration result with huCCRL2 and in the test with mCCRL2 [1] was “migrated” throughout. For the same molecule, the intracellular calcium mobilization result with mCCRL2 [4] is “responded”.
On to “CCL7: chemokine purchased from R&D Systems”, for which the transwell migration entry in the test with mCCRL2 [1] was “did not induce migration”.

B1: CCL22: known chemoattractant (protein, UniProt O00626 25-93, looked up)
C-C motif chemokine 22: GPYGANMEDSVCCRDYVRYRLPLRVVKHFYWTSDSCPRPGVVLLTFRDKEICADPRVPWVKMILNKLSQ
In the case of B1, in the test with mCCRL2 [1], the transwell migration entry is given as “none stimulated”.

B2: carboxyl-terminal His8-tagged "pro-form" human chemerin (ligand)
chain: ADPELTEAQRRGLQVALEEFHKHPPVQWAFQETSVESAVDTPFPAGIFVRLEFKLQQTSCRKRDWKKPECKVRPNGRKRKCLACIKLGSEDKVLGRLVHCPIETQVLREAEEHQETQCLRVQRAGEDPHSFYFPGQFAFSKALPRSPHHHHHHHH
notes: Printed with an ellipsis, and with six H although called His8-tagged; also called His8-tagged chemerin isoform
For B2, the binding result in [5] was “binds”.

B3: CCL17: known chemoattractant (protein, UniProt Q92583 24-94, looked up)
C-C motif chemokine 17: ARGTNVGRECCLEYFKGAIPLRKLKTWYQTSEDCSRDAIVFVTVQGRAICSDPNNKRVKNAVKYLQSLERS
On to B3, for which the transwell migration result in the test with mCCRL2 [1] is “none stimulated”.

B4: radioiodinated human chemerin (residues 21-148) (ligand, UniProt Q99969 21-148, looked up)
chain: ELTEAQRRGLQVALEEFHKHPPVQWAFQETSVESAVDTPFPAGIFVRLEFKLQQTSCRKRDWKKPECKVRPNGRKRKCLACIKLGSEDKVLGRLVHCPIETQVLREAEEHQETQCLRVQRAGEDPHSF
modifications: 125I-labelled (radioiodinated), specific activity 97 Ci/g
In test [6], B4 registered a Kd of 1.6 nM.

B5: pro-form (1000 nM untagged chemerin isoform) (ligand)
chain: ADPELTEAQRRGLQVALEEFHKHPPVQWAFQETSVESAVDTPFPAGIFVRLEFKLQQTSCRKRDWKKPECKVRPNGRKRKCLACIKLGSEDKVLGRLVHCPIETQVLREAEEHQETQCLRVQRAGEDPHSFYFPGQFAFSKALPRSPH
notes: also called untagged pro-form human chemerin, His8 tag removed by carboxypeptidase A
B5: in test [7], the binding result was “binds”.

B6: CCL25: known chemoattractant (protein, UniProt O15444 24-150, looked up)
C-C motif chemokine 25: QGVFEDCCLAYHYPIGWAVLRRAWTYRIQEVSGSCNLPAAIFYLPKRHRKVCGNPKSREVQRAMKLLDARNKVFAKLHHNTQTFQAGPHAVKKLSSGNSKLSSSKFSNPISSSKRNVSLLISANSGL
Turning to B6, the transwell migration result in the test with mCCRL2 [1] is “none stimulated”.

B7: CCL27: known chemoattractant (protein, UniProt Q9Y4X3 25-112, looked up)
C-C motif chemokine 27: FLLPPSTACCTQLYRKPLSDKLLRKVIQVELQEADGDCHLQAFVLHLAQRSICIHPQNPSLSQWFEHQERKLHGTLPKLNFGMLRKMG
For the molecule B7, the transwell migration entry in the test with mCCRL2 [1] is recorded as “none stimulated”.

B8: CCL8: chemokine purchased from R&D Systems (protein, UniProt P80075 24-99, looked up)
C-C motif chemokine 8: QPDSVSIPITCCFNVINRKIPIQRLESYTRITNIQCPKEAVIFKTKRGKEVCADPKERWVRDSMKHLDQIFQNLKP
Turning to B8, the transwell migration entry in the test with mCCRL2 [1] is “did not induce migration”.

B9: untagged "serum form" human chemerin (His8 tag removed by carboxypeptidase A) (ligand)
chain: ADPELTEAQRRGLQVALEEFHKHPPVQWAFQETSVESAVDTPFPAGIFVRLEFKLQQTSCRKRDWKKPECKVRPNGRKRKCLACIKLGSEDKVLGRLVHCPIETQVLREAEEHQETQCLRVQRAGEDPHSFYFPGQFAPH
notes: The assays print 'untagged serum form chemerin' or 'serum form chemerin' without the species; Printed with an ellipsis; also called untagged serum form chemerin; untagged chemerin
On to B9, for which the results for the EC50 in test [8] and in test [9] were 7 nM and 45 nM, respectively.

The values are drawn from US20100092974A1, “METHODS FOR SCREENING FOR MODULATORS OF CCRL2” (The Board of Trustees of the Leland Stanford Junior …, priority 2008, published 2010).
